The subject of data set [1] is T1, oligopeptide sequence GNWPWDWGWDWPWNWG (SEQ ID NO:8) tethering TCPP to the nanoparticle.
T1 sequence: GNWPWDWGWDWPWNWG

Data set [2] has as its system T2, oligopeptide sequence GNwPwDwGwDwPwNwG (SEQ ID NO:9) tethering TCPP to the nanoparticle.
T2 sequence: GNWPWDWGWDWPWNWG

In data set [3] the test system is T3, Cyanine 5.5 linked GR7G peptide (SEQ ID NO:5) on nanoplatform 1 / nanoplatform 2.
T3 sequence: GRRRRRRRG

In data set [4] the test system is T4, oligopeptide sequence GRARQRLRARQG (SEQ ID NO:7) tethering TCPP to the nanoparticle.
T4 sequence: GRARQRLRARQG

In data set [5] the test system is T5, oligopeptide sequence GRRRRRRRG (SEQ ID NO:5) tethering TCPP to the nanoparticle.
T5 sequence: GRRRRRRRG

Turning to tryptophan 2,3-dioxygenase, the “calibration of nanoplatform fluorescence after 60 min. of incubation in HEPES buffer” value in data set [1] is listed as “the concentration of TDO can be determined over the whole range from 10^-7 to 10^-16 M”; in data set [2], “TDO does not react with the substrate GNwPwDwGwDwPwNwG (SEQ ID NO:9), because it is specific for L-tryptophan”.
Take indoleamine 2,3-dioxygenase 1: in data set [1], the “limit of detection, nanoplatform fluorescence after 60 min. of incubation in HEPES buffer” value was “the LOD for IDO1 is 10^-15 M”. In addition, the “calibration of nanoplatform fluorescence after 60 min. of incubation in HEPES buffer” value in data set [2] is on record as “the concentration of IDO1 can be determined over the range from 10^-7 to 10^-14 M”.

B1: arginase II (enzyme, UniProt P78540 23-354, looked up, species assumed)
Arginase-2, mitochondrial: VHSVAVIGAPFSQGQKRKGVEHGPAAIREAGLMKRLSSLGCHLKDFGDLSFTPVPKDDLYNNLIVNPRSVGLANQELAEVVSRAVSDGYSCVTLGGDHSLAIGTISGHARHCPDLCVVWVDAHADINTPLTTSSGNLHGQPVSFLLRELQDKVPQLPGFSWIKPCISSASIVYIGLRDVDPPEHFILKNYDIQYFSMRDIDRLGIQKVMERTFDLLIGKRQRPIHLSFDIDAFDPTLAPATGTPVVGGLTYREGMYIAEEIHNTGLLSALDLVEVNPQLATSEEEAKTTANLAVDVIASSFGQTREGGHIVYDQLPTPSSPDESENQARVRI
Regarding B1, in data set [3], the “cyanine 7.0 fluorescence (FRET) of nanoplatform 1 after 1 h of incubation at 37° C.” value is “After incubation with arginase II, an increase in cyanine 7.0 fluorescence was observed”; the “limit of detection from the calibration curve of FIG. 13 (nanoplatform 2, printed as nanoplatform 1)” value is listed as “the LOD (limit of detection) of nanoplatform 1 is 10^-10 M”; the “limit of detection of nanoplatform 1, quotient of integrated cyanine 5.5 and cyanine 7.0 fluorescence bands” value was “the LOD (limit of detection) of nanoplatform 1 is down to the picomolar level”; the “limit of detection of nanoplatform 2, fluorescence increase over the whole range” value is listed as “its LOD is only at 10^-7 M of arginase II concentration”. The “limit of detection, TCPP fluorescence of the nanoplatform after 60 min. of incubation in HEPES buffer” value in data set [4] was “The limit of detection is estimated to 2×10^-16M arginase II”. Besides, the “limit of detection, TCPP fluorescence of the nanoplatform after 60 min. of incubation in PBS” value in data set [5] was “The limit of detection is 10^-15 M arginase II”.

For the origin of these results see patent US20180099057.
